Data reported in article PMC9884274.

Target: WT Atezolizumab scFv-His6, purified
Experiment: mass photometry; Refeyn TwoMP, room temperature, 1X PBS; PD-L1 at 7.4, 18.5 and 74 nM; each scFv at 100 nM

stoichiometry N: 2
Substance: WT Atezolizumab scFv-His6, purified
